Measurements: patent publication US20030219899A1

What was measured:
Test in all cases: cell-based or functional assay
[1] = target: Ad3 receptor
[2] = target: hCAR-tailless, truncation mutant of human CAR lacking the cytoplasmic domain (human) (UniProt P78310)
[3] = target: human coxsackie-adenovirus receptor (hCAR) (human) (UniProt P78310)

## mosaic adenovirus AdMSluc1 displaying both the Ad5 wild-type fiber and the Ad5/3 chimeric fiber on the same virion (from UniProt P11818 1-581; P11818 1-399; P04501 132-319)
[1]
  luciferase gene transfer of AdMSluc1 to C33A cells in the presence of purified Ad3 knob: 100 µg/mL
[2]
  AdMSluc1 luciferase activity (normalized to Ad5/3luc1) in U118-hCAR-tailless cells against parental U118 cells: 7.5 fold
[3]
  AdMSluc1 luciferase activity (normalized to Ad5/3luc1) in U118-hCAR cells against parental U118 cells: 6 fold
  luciferase gene transfer of AdMSluc1 to C33A cells in the presence of purified Ad5 knob; lowest knob concentration with significant block: 0.1 µg/mL

## recombinant Ad3 fiber knob protein with N-terminal 6xHis tag expressed in E. coli (from UniProt P04501 119-319)
[1]
  luciferase activity of Ad5/3luc1 on HeLa cells with 100 µg/ml Ad3 knob, against that without knob protein (% of activity without knob protein): < 5

## Ad5 wild-type fiber, as displayed on Ad5luc1 (from UniProt P11818 1-581)
[2]
  Ad5luc1 luciferase activity (normalized to Ad5/3luc1) in U118-hCAR-tailless cells against parental U118 cells: 16 fold
[3]
  Ad5luc1 luciferase activity (normalized to Ad5/3luc1) in U118-hCAR cells against parental U118 cells: 11 fold

## recombinant Ad5 fiber knob protein with N-terminal 6xHis tag expressed in E. coli (from UniProt P11818 387-581)
[3]
  luciferase activity of Ad5luc1 on HeLa cells with 100 µg/ml Ad5 knob, against that without knob protein (% of activity without knob protein): < 5
